The supplement of paper PMC10201428
± gives the standard deviation of the averaged measurements.

Experiments:
[1] = test system: VchCAST RNA-guided transposition machinery (E. coli BL21(DE3) host, lacZ target); assay: relative integration efficiency (T-RL orientation) vs wild-type transposon end (log2 (normalized fold change)); transposon end mutated: right end (5 bp flank + 75 bp right end); higher = more efficient transposition
In short: (§1)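 In E. coli BL21(DE3), a T7-driven effector plasmid was paired with a pUC57 mini-transposon donor containing 1549 left-end or 1849 right-end barcoded transposon variants. Cells grew on plates with 0.1 mM IPTG at 37°C for 18 h. Relative integration efficiency was derived from Illumina reads of genomic integration junctions against input plasmids, as a log-transformed output/input barcode fold change normalised to reference barcodes.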

[2] = test system: VchCAST RNA-guided transposition machinery (E. coli BL21(DE3) host, lacZ target); assay: relative integration efficiency (T-LR orientation) vs wild-type transposon end (log2 (normalized fold change)); transposon end mutated: right end (5 bp flank + 75 bp right end); higher = more efficient transposition
In short: as §1

| Sequence | relative integration efficiency (log2) [1] | relative integration efficiency (log2) [2] |
| --- | --- | --- |
| ACATTTGTTGATACAACCATAAAATGATAATTACACCCATAAATTGATAATTATCACACCCATAAATTGCGCGGTAAGAGGATCATAGTCAGACCAACATTGCTACGACCCGTATTCGCACCGACAC | -0.4 ± 0.022 | 2.18 ± 0.12 |
| ACATTTGTTGATACAACCATAAAATGATAATTACACCCATAAATTGATAATTATCACACCCATAAATTGATATTGCCTCTGTACCGTTCGTATAATGTATGCTATACCAAGTTATTCGCACCGACAC | -0.351 ± 0.19 | -0.0326 ± 0.059 |
| ACATTTGTCGATCCAACCATAAAATGATAATTACACCCATAAATGGATAATTATCACACCCAATTTAACTATAACGCTCTGATCATAGTCAGACCAACATTGCTACGACCCGTATTCGCACCGACAC | -1.4 ± 0.23 | 1.38 ± 0.094 |
| ACATTTGTTGATATAATTATCATTTTATGGTTGTAATTATCATTTTATGGTTGTCATAATTATCATTTTATGGTTGCTCTGATCATAGTCAGACCAACATTGCTACGACCCGTATTCGCACCGACAC | -6.26 ± 0.22 | -6.39 ± 2.5 |
| ACATTTGTTGATACAACCATAAAATGATAATTAATAATTATTTATAATCAGCAACTTAACCACCACCCATAAATTGATAATTATCACACCCATAAATTGATATTGCCTCTGATCATAGTCAGACCAA | -3.5 ± 0.74 | -0.482 ± 0.91 |
| ACATTTGTTGATACAACCATAAAATGATAATTACTCTGCACCCATAAATTGATAATTATCACACCCATAAATTGATATTGCATCATAGTCAGACCAACATTGCTACGACCCGTATTCGCACCGACAC | -3.62 ± 0.15 | 0.55 ± 0.061 |
| ACATTTGTTGATAAAACCATAAAATGATTATTAGAAACCATAATCTGAAATTATCACACCCATAAATTGATATTGCCTCTGATCATAGTCAGACCAACATTGCTACGACCCGTATTCGCACCGACAC | -3.26 ± 0.065 | -2.22 ± 0.34 |
| ACATTTGTTGATACACCCATAAATTGATAATTACACCCATAAATTGATATTGCTCAGTGGGTATTTAACTATAACGCTCTGATCATAGTCAGACCAACATTGCTACGACCCGTATTCGCACCGACAC | -1.23 ± 0.25 | 2.63 ± 0.18 |
| ACATTTGTTGATACAACCATAAAATGATAATTACACCCATAAATTGATAATCACACCCATAAATTGATATTGCCTCTGATCATAGTCAGACCAACATTGCTACGACCCGTATTCGCACCGACACTGA | -1.32 ± 0.31 | 1.82 ± 0.057 |
| ACATTTGTTGATACAACCATAAAATGATAATTACACCCATAAATTGATAATTATCACACCCATAAATGTCGCGGTAAGAGGATCATAGTCAGACCAACATTGCTACGACCCGTATTCGCACCGACAC | -0.671 ± 0.0087 | 2.19 ± 0.15 |
| ACATTTGTTGATACAACCATAAAATGATAATTACACCCATAAATTGAGCCGTATCACACCCATAAATTGATATTGCCTCTGATCATAGTCAGACCAACATTGCTACGACCCGTATTCGCACCGACAC | -1.03 ± 0.093 | -1.21 ± 0.12 |
| ACATTTGTTGATACAACCATAAAAGGATCATTCACCCCTAAATTGATAATTATCACACCCACATTTAACTATAACGCTCTGATCATAGTCAGACCAACATTGCTACGACCCGTATTCGCACCGACAC | -4.73 ± 0.18 | -1.36 ± 0.36 |
| ACATTTGTTGATACCACCATCAAATGGTAATTACACCCCTACATTGATAATTATCACACCCAATTTAACTATAACGCTCTGATCATAGTCAGACCAACATTGCTACGACCCGTATTCGCACCGACAC | -3.15 ± 0.8 | 0.00776 ± 0.29 |
| ACATTTGTTGATACAACCATCAAATGGTAATTCCACCCCTACATTGATAATTATCACACCCAATTTAACTATAACGCTCTGATCATAGTCAGACCAACATTGCTACGACCCGTATTCGCACCGACAC | -5.71 ± 0.097 | -3.06 ± 0.11 |
| ACATTTGTTGATACAACCATAACCGTCGCCGGCACAAACGCCCGGTCGCCGGCGACACAAACGCCCGGTCGCGGTAAGAGGATCATAGTCAGACCAACATTGCTACGACCCGTATTCGCACCGACAC | -7.77 ± 0.98 | -6.09 ± 0.56 |
| ACATTTGTTGATACAACCATAAAATGATATTTACACCCATAAATTGATATTTATCACACCCATAAATTGATAATGCCTCTGATCATAGTCAGACCAACATTGCTACGACCCGTATTCGCACCGACAC | -0.257 ± 0.19 | -0.16 ± 0.048 |
| ACATTTGTCGATACAACCATAAAACGATAATTACACCCATAAATGGATAATTATCACACCCAATTTAACTATAACGCTCTGATCATAGTCAGACCAACATTGCTACGACCCGTATTCGCACCGACAC | -1.19 ± 0.15 | 1.85 ± 0.05 |
| ACATTTGTTGATACAACCATAAACTGATAATTACACCCATAAAGTGATAATTATCACACCCATAAAGTGATATTGCCTCTGATCATAGTCAGACCAACATTGCTACGACCCGTATTCGCACCGACAC | 0.368 ± 0.095 | 0.264 ± 0.12 |

| Sequence | relative integration efficiency (log2) [1] | relative integration efficiency (log2) [2] |
| --- | --- | --- |
| ACATTTGTTGATACACCCATAAATTGATAATTACACCCATAAATTGATAATTATCACACCCATAAATTGATATTGCCTCTGATCATAGTCAGACCAACATTGCTACGACCCGTATTCGCACCGACAC | -0.116 ± 0.036 | -0.0387 ± 0.31 |
| ACATTTGTTGATACAACCATAAAATCATAATTACACCCATAAATTGATAATTATCCCACCCAATTTAACTATAACGCTCTGATCATAGTCAGACCAACATTGCTACGACCCGTATTCGCACCGACAC | -2.19 ± 0.14 | 1.64 ± 0.041 |
| ACATTTGTTCATACAACCATAAAACGATAATTACACCCATAAATTGATCATTATCACACCCAATTTAACTATAACGCTCTGATCATAGTCAGACCAACATTGCTACGACCCGTATTCGCACCGACAC | -2.19 ± 0.3 | -0.162 ± 0.59 |
| ACATTTGTTGATACAACCATAAAATGATAATTAATAATTATTTATAACACCCATAAATTGATAATTATCAACAAACGCCCGGTCGCGGTACTCTGATCATAGTCAGACCAACATTGCTACGACCCGT | -2.63 ± 0.52 | 0.00268 ± 0.47 |
| ACATTTGTTGATACAACCATAAAATGATAATTACACCCATAAATTGATAATTATCACACCCATAAATTGATATTGCCAACCATAAAATGATAATTACTCTGATCATAGTCAGACCAAGCACCGACAC | -1.11 ± 0.39 | -0.138 ± 0.05 |
| ACATTTGTTGATACAACCAGCCCCTGATAATTACACCCAGCCCGTGATAATTATCACACCCAGCCCGTGATATTGCCTCTGATCATAGTCAGACCAACATTGCTACGACCCGTATTCGCACCGACAC | -6.71 ± 0.47 | -4.67 ± 2 |
| ACATTTGTTGATACAACCATAAAATGATAATTACACCCATCCCGGTCGCCGGCGACACAAACGCCCGGTCGCGGTAAGAGGATCATAGTCAGACCAACATTGCTACGACCCGTATTCGCACCGACAC | -2.64 ± 0.12 | 0.414 ± 0.23 |
| ACATTTGTTGATACAACCATAAAATGATAATTACACCCATAAATTGATAATTATCACACCCATAAATTGATATTGCCTCTGATCATATTTAATAATTAATTTATATATTTAAGTCAGGCACCGACAC | 0.707 ± 0.19 | 0.961 ± 0.58 |
| ACATTTGTTCATACAACCATAAAATGATAATTACCACCCCTACATTGATAATTATCACACCCATTTAACTATAACGCTCTGATCATAGTCAGACCAACATTGCTACGACCCGTATTCGCACCGACAC | -4.944 ± 0.019 | -3.25 ± 0.45 |
| ACATTTGTTGATACAACCATAAAGTGATATTTACACCCATAAATTGATAATTATCACAACCATAAGTTGATATTTTCTCTGATCATAGTCAGACCAACATTGCTACGACCCGTATTCGCACCGACAC | -0.313 ± 0.23 | -0.245 ± 0.3 |
| ACATTTGTTGATACAACCATAAAATGATAATTACACCCATAAATTGATAATTATCACACCCATAAATTGATATTGCCTCTTCATGGTCTAAACTTCAGTCCTGGGCATCAATTTTCAGCACCGACAC | 0.135 ± 0.16 | -0.163 ± 0.029 |
| ACATTTGTTGATACAACCATAAAAGGATCATTACACCCATAAATTGATAATTATCCCACCCCATTTAACTATAACGCTCTGATCATAGTCAGACCAACATTGCTACGACCCGTATTCGCACCGACAC | -2.12 ± 0.38 | 1.38 ± 0.021 |
| ACATTTGTTGATACAACCATAAAATGATAATTAATAATTATTTATAATCAGCACCCATAAATTGATAATTATCAACAAACGCCCGGTCGCGGTACTCTGATCATAGTCAGACCAACATTGCTACGAC | -2.03 ± 0.4 | 0.752 ± 0.5 |
| ACATTTGTTGATACAACCATAAAATGATAATTACTCTGATCACCCATAAATTGATAATTATCAGTGGGTATTTAACTATAACGCATAGTCAGACCAACATTGCTACGACCCGTATTCGCACCGACAC | -2.48 ± 0.42 | 0.977 ± 0.086 |
| ACATTTGTTGATACAACCATAAAATGATAATTACACCCATAAATTGATAATTATCACACCCATAAATTGATATTGCCTCTGATCATAGTCTGTGATTGTTATCACATTTCAGACCAAGCACCGACAC | -0.0662 ± 0.076 | 0.209 ± 0.1 |
| ACATTAGTGGATACAACCATAAAATGATAATTACACCCATAAATTGATCATTATCACACCCAATTTAACTATAACGCTCTGATCATAGTCAGACCAACATTGCTACGACCCGTATTCGCACCGACAC | -7.5 ± 0.15 | -5.22 ± 1.2 |
| ACATTTGTTGATACAACCATAAAATGATAATTAATAATTATTTATCACCCATAAATTGATAATTATCACACCCATAAATTGATATTGCCTCTGATCATAGTCAGACCAACATTGCTACGACCCGTAT | -3.21 ± 0.32 | -2.04 ± 0.35 |
